Data taken from the supplement of paper PMC9112550, “Optimization of the antimicrobial peptide Bac7 by deep mutational scanning” (BMC Biology, 2022).

Test system: Escherichia coli TOP10
Assay: shrunken log2 fold change of peptide-encoding DNA abundance (4.5 h post-induction vs induction); higher = less antimicrobial activity (less host growth inhibition)
Details: time post-induction: 4.5 h; library: site-saturation at positions 5, 18, 19, 20
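Note: peptides expressed intracellularly from a pBAD plasmid library in pooled LB shake-flask culture, induced with 0.3% L-arabinose, DNA abundance read by NGS, three biological replicates, DESeq2 with apeglm shrinkage.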

RRIRCRPPRLPRPRPRPEKFPRP
shrunken log2 fold change: 0.0607

RRIRYRPPRLPRPRPRPDCPPRP
shrunken log2 fold change: -0.179

RRIRCRPPRLPRPRPRPRFTPRP
shrunken log2 fold change: 0.066

RRIRWRPPRLPRPRPRPLAVPRP
shrunken log2 fold change: 0.541

RRIRGRPPRLPRPRPRPYPSPRP
shrunken log2 fold change: -0.111

RRIRSRPPRLPRPRPRPAIWPRP
shrunken log2 fold change: 0.463

RRIRVRPPRLPRPRPRPIKDPRP
shrunken log2 fold change: 0.0334

RRIRKRPPRLPRPRPRPLSKPRP
shrunken log2 fold change: 0.213

RRIRYRPPRLPRPRPRPGCYPRP
shrunken log2 fold change: -0.8

RRIRHRPPRLPRPRPRPWNWPRP
shrunken log2 fold change: -0.0135

RRIRARPPRLPRPRPRPNIGPRP
shrunken log2 fold change: -0.0734

RRIRSRPPRLPRPRPRPVMRPRP
shrunken log2 fold change: 0.594

RRIRHRPPRLPRPRPRPWQVPRP
shrunken log2 fold change: -0.0402

RRIRVRPPRLPRPRPRPQIEPRP
shrunken log2 fold change: -0.0116

RRIRKRPPRLPRPRPRPGVPPRP
shrunken log2 fold change: 0.364

RRIRARPPRLPRPRPRPDILPRP
shrunken log2 fold change: 0.0584

RRIRWRPPRLPRPRPRPMTMPRP
shrunken log2 fold change: -0.385

RRIRQRPPRLPRPRPRPEVGPRP
shrunken log2 fold change: -0.0239

RRIRCRPPRLPRPRPRPLSLPRP
shrunken log2 fold change: -0.305

RRIRLRPPRLPRPRPRPACPPRP
shrunken log2 fold change: -0.00982

RRIRSRPPRLPRPRPRPAPFPRP
shrunken log2 fold change: 0.201

RRIRTRPPRLPRPRPRPENLPRP
shrunken log2 fold change: -0.0254

RRIRNRPPRLPRPRPRPRYVPRP
shrunken log2 fold change: -0.265

RRIRHRPPRLPRPRPRPDIHPRP
shrunken log2 fold change: -0.171

RRIRMRPPRLPRPRPRPVNLPRP
shrunken log2 fold change: -0.0198

RRIRNRPPRLPRPRPRPVSTPRP
shrunken log2 fold change: -0.272

RRIRRRPPRLPRPRPRPKWEPRP
shrunken log2 fold change: 0.364

RRIRKRPPRLPRPRPRPASCPRP
shrunken log2 fold change: 0.431

RRIRGRPPRLPRPRPRPETKPRP
shrunken log2 fold change: 0.374

RRIRGRPPRLPRPRPRPFLHPRP
shrunken log2 fold change: 0.0811

RRIRFRPPRLPRPRPRPYTRPRP
shrunken log2 fold change: -0.369

RRIRLRPPRLPRPRPRPIREPRP
shrunken log2 fold change: -0.27

RRIRPRPPRLPRPRPRPNHHPRP
shrunken log2 fold change: -0.509

RRIRARPPRLPRPRPRPVGKPRP
shrunken log2 fold change: 0.196

RRIRERPPRLPRPRPRPWLTPRP
shrunken log2 fold change: -0.0528

RRIRVRPPRLPRPRPRPAPYPRP
shrunken log2 fold change: -0.00665

RRIRFRPPRLPRPRPRPWAWPRP
shrunken log2 fold change: 0.174

RRIRDRPPRLPRPRPRPAYIPRP
shrunken log2 fold change: -0.0656

RRIRLRPPRLPRPRPRPPTIPRP
shrunken log2 fold change: 0.168

RRIRERPPRLPRPRPRPIAQPRP
shrunken log2 fold change: -0.0491

RRIRSRPPRLPRPRPRPFVQPRP
shrunken log2 fold change: -0.496

RRIRFRPPRLPRPRPRPQCQPRP
shrunken log2 fold change: -0.0517

RRIRSRPPRLPRPRPRPPKNPRP
shrunken log2 fold change: 0.223

RRIRYRPPRLPRPRPRPMFLPRP
shrunken log2 fold change: -0.377

RRIRGRPPRLPRPRPRPHKTPRP
shrunken log2 fold change: -0.0617

RRIRRRPPRLPRPRPRPYMGPRP
shrunken log2 fold change: 0.00385

RRIRTRPPRLPRPRPRPEEHPRP
shrunken log2 fold change: 0.0062

RRIRTRPPRLPRPRPRPWSNPRP
shrunken log2 fold change: 0.0394

RRIRGRPPRLPRPRPRPVHAPRP
shrunken log2 fold change: 0.743

RRIRCRPPRLPRPRPRPMAGPRP
shrunken log2 fold change: -0.0712

RRIRCRPPRLPRPRPRPKFWPRP
shrunken log2 fold change: 0.449

RRIRGRPPRLPRPRPRPNGQPRP
shrunken log2 fold change: 0.386

RRIRVRPPRLPRPRPRPHPCPRP
shrunken log2 fold change: 0.106

RRIRSRPPRLPRPRPRPTLQPRP
shrunken log2 fold change: 0.128

RRIRERPPRLPRPRPRPLCDPRP
shrunken log2 fold change: 1.81

RRIRSRPPRLPRPRPRPKATPRP
shrunken log2 fold change: 0.7

RRIRKRPPRLPRPRPRPVFFPRP
shrunken log2 fold change: 0.341

RRIRCRPPRLPRPRPRPAEHPRP
shrunken log2 fold change: 0.0782

RRIRFRPPRLPRPRPRPATSPRP
shrunken log2 fold change: 0.0918

RRIRCRPPRLPRPRPRPKESPRP
shrunken log2 fold change: 0.0858

RRIRARPPRLPRPRPRPHFDPRP
shrunken log2 fold change: 0.22

RRIRGRPPRLPRPRPRPGGPPRP
shrunken log2 fold change: 0.968

RRIRYRPPRLPRPRPRPKYCPRP
shrunken log2 fold change: 0.0325

RRIRSRPPRLPRPRPRPWALPRP
shrunken log2 fold change: -0.0699

RRIRERPPRLPRPRPRPNGYPRP
shrunken log2 fold change: -0.193

RRIRERPPRLPRPRPRPGLLPRP
shrunken log2 fold change: -0.0986

RRIRIRPPRLPRPRPRPPEHPRP
shrunken log2 fold change: -0.037

RRIRSRPPRLPRPRPRPTLEPRP
shrunken log2 fold change: 0.474

RRIRNRPPRLPRPRPRPTYSPRP
shrunken log2 fold change: -0.226

RRIRTRPPRLPRPRPRPNDSPRP
shrunken log2 fold change: -0.00242

RRIRERPPRLPRPRPRPILNPRP
shrunken log2 fold change: 2.73

RRIRDRPPRLPRPRPRPEIHPRP
shrunken log2 fold change: 0.597

RRIRNRPPRLPRPRPRPPKRPRP
shrunken log2 fold change: 0.497

RRIRARPPRLPRPRPRPGTFPRP
shrunken log2 fold change: -0.125

RRIRVRPPRLPRPRPRPKALPRP
shrunken log2 fold change: 0.0497

RRIRIRPPRLPRPRPRPTDQPRP
shrunken log2 fold change: -0.51

RRIRPRPPRLPRPRPRPAAKPRP
shrunken log2 fold change: 0.435

RRIRWRPPRLPRPRPRPLKDPRP
shrunken log2 fold change: -0.178

RRIRSRPPRLPRPRPRPNLMPRP
shrunken log2 fold change: -0.177

RRIRARPPRLPRPRPRPVWDPRP
shrunken log2 fold change: 0.312

RRIRKRPPRLPRPRPRPDYHPRP
shrunken log2 fold change: -0.244

RRIRDRPPRLPRPRPRPCLLPRP
shrunken log2 fold change: 0.491

RRIRMRPPRLPRPRPRPHTCPRP
shrunken log2 fold change: -0.0858

RRIRRRPPRLPRPRPRPYNVPRP
shrunken log2 fold change: -0.181

RRIRPRPPRLPRPRPRPKDIPRP
shrunken log2 fold change: -0.801

RRIRLRPPRLPRPRPRPETIPRP
shrunken log2 fold change: 0.0243

RRIRDRPPRLPRPRPRPACWPRP
shrunken log2 fold change: 0.929

RRIRCRPPRLPRPRPRPCMIPRP
shrunken log2 fold change: -0.23

RRIRLRPPRLPRPRPRPVEIPRP
shrunken log2 fold change: 0.0548

RRIRKRPPRLPRPRPRPEMVPRP
shrunken log2 fold change: 0.422

RRIRFRPPRLPRPRPRPIGPPRP
shrunken log2 fold change: 0.0274

RRIRHRPPRLPRPRPRPNRPPRP
shrunken log2 fold change: -0.022

RRIRVRPPRLPRPRPRPVYKPRP
shrunken log2 fold change: -0.302

RRIRLRPPRLPRPRPRPVIPPRP
shrunken log2 fold change: -0.0331

RRIRGRPPRLPRPRPRPQWIPRP
shrunken log2 fold change: 0.518

RRIRPRPPRLPRPRPRPQWWPRP
shrunken log2 fold change: 0.111

RRIRGRPPRLPRPRPRPLRRPRP
shrunken log2 fold change: 1.54

RRIRCRPPRLPRPRPRPNNYPRP
shrunken log2 fold change: -0.81

RRIRERPPRLPRPRPRPHVPPRP
shrunken log2 fold change: -0.0791

RRIRNRPPRLPRPRPRPDLCPRP
shrunken log2 fold change: -0.0418

RRIRRRPPRLPRPRPRPQGVPRP
shrunken log2 fold change: -0.159

RRIRCRPPRLPRPRPRPSQLPRP
shrunken log2 fold change: -0.357

RRIRSRPPRLPRPRPRPGPWPRP
shrunken log2 fold change: -0.0683

RRIRFRPPRLPRPRPRPCQFPRP
shrunken log2 fold change: -0.227

RRIRQRPPRLPRPRPRPGGNPRP
shrunken log2 fold change: -0.0842

RRIRKRPPRLPRPRPRPRLKPRP
shrunken log2 fold change: 0.365

RRIRYRPPRLPRPRPRPWALPRP
shrunken log2 fold change: -0.355

RRIRFRPPRLPRPRPRPKNRPRP
shrunken log2 fold change: -0.284

RRIRLRPPRLPRPRPRPWQHPRP
shrunken log2 fold change: -0.319
